According to US20150344570A1 (published 2015):

T1: FcγRIIb extracellular domain with C-terminal His tag (human, UniProt P31994 43-217)
T1 construct: extracellular domain; Soluble receptor used as analyte in Biacore; also called FcgRIIb; CD32B
T1 sequence (looked up): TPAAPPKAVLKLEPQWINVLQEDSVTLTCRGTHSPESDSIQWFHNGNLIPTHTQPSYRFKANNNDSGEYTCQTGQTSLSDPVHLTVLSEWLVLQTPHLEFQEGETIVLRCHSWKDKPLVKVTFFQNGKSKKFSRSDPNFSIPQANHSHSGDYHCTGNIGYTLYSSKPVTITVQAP


How the values were obtained:
[1] = biological target: T1, FcγRIIb extracellular domain with …; assay: SPR Biacore, antibody captured on antigen-peptide chip, FcγR as analyte
[2] = biological target: T2, FcγRIa extracellular domain with C-terminal His tag (human, UniProt P12314 16-292); assay: as above
T2 construct: extracellular domain; Soluble receptor used as analyte in Biacore; also called FcgRI; FcgRIa
T2 sequence (P12314 16-292): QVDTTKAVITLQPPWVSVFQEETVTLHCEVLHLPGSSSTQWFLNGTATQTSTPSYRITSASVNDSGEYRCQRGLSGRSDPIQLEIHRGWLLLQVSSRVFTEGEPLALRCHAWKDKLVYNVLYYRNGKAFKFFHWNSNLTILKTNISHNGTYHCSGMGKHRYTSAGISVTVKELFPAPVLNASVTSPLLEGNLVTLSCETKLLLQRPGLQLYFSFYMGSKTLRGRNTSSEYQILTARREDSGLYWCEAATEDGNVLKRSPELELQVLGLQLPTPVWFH

He/Con_2b [1] | He/Con_1a [2] | Binder
51.5 relative, GpH7-A5/GpH7-B3/GpL16-k0 = 100 | 104 relative, GpH7-A5/GpH7-B3/GpL16-k0 = 100 | GpH7-A5/GpH7-B3 variant E269_01G/GpL16-k0 (antibody, human IgG1, kappa, Heterodimerized anti-glypican-3 IgG1; mutation in the GpH7-B3 chain only; also called He Ab E269G) heavy 1: not shown heavy 2: not shown light: DIVMTQSPLSLPVTPGEPASISCQASESLVHSNRNTYLHWYLQKPGQSPQLLIYKVSNRFSGVPDRFSGSGSGTDFTLKISRVEAEDVGVYYCSQNTHVPPTFGQGTKVEIERTVAAPSVFIFPPSDEQLKSGTASVVCLLNNFYPREAKVQWKVDNALQSGNSQESVTEQDSKDSTYSLSSTLTLSKADYEKHKVYACEVTHQGLSSPVTKSFNRGEC
49.9 relative, GpH7-A5/GpH7-B3/GpL16-k0 = 100 | 104 relative, GpH7-A5/GpH7-B3/GpL16-k0 = 100 | GpH7-A5/GpH7-B3 variant E269_02A/GpL16-k0 (antibody, human IgG1, kappa, Heterodimerized anti-glypican-3 IgG1; mutation in the GpH7-B3 chain only; also called He Ab E269A) heavy 1: not shown heavy 2: not shown light: DIVMTQSPLSLPVTPGEPASISCQASESLVHSNRNTYLHWYLQKPGQSPQLLIYKVSNRFSGVPDRFSGSGSGTDFTLKISRVEAEDVGVYYCSQNTHVPPTFGQGTKVEIERTVAAPSVFIFPPSDEQLKSGTASVVCLLNNFYPREAKVQWKVDNALQSGNSQESVTEQDSKDSTYSLSSTLTLSKADYEKHKVYACEVTHQGLSSPVTKSFNRGEC
45.1 relative, GpH7-A5/GpH7-B3/GpL16-k0 = 100 | 103 relative, GpH7-A5/GpH7-B3/GpL16-k0 = 100 | GpH7-A5/GpH7-B3 variant E269_03V/GpL16-k0 (antibody, human IgG1, kappa, Heterodimerized anti-glypican-3 IgG1; mutation in the GpH7-B3 chain only; also called He Ab E269V) heavy 1: not shown heavy 2: not shown light: DIVMTQSPLSLPVTPGEPASISCQASESLVHSNRNTYLHWYLQKPGQSPQLLIYKVSNRFSGVPDRFSGSGSGTDFTLKISRVEAEDVGVYYCSQNTHVPPTFGQGTKVEIERTVAAPSVFIFPPSDEQLKSGTASVVCLLNNFYPREAKVQWKVDNALQSGNSQESVTEQDSKDSTYSLSSTLTLSKADYEKHKVYACEVTHQGLSSPVTKSFNRGEC
45 relative, GpH7-A5/GpH7-B3/GpL16-k0 = 100 | 103 relative, GpH7-A5/GpH7-B3/GpL16-k0 = 100 | GpH7-A5/GpH7-B3 variant E269_04F/GpL16-k0 (antibody, human IgG1, kappa, Heterodimerized anti-glypican-3 IgG1; mutation in the GpH7-B3 chain only; also called He Ab E269F) heavy 1: not shown heavy 2: not shown light: DIVMTQSPLSLPVTPGEPASISCQASESLVHSNRNTYLHWYLQKPGQSPQLLIYKVSNRFSGVPDRFSGSGSGTDFTLKISRVEAEDVGVYYCSQNTHVPPTFGQGTKVEIERTVAAPSVFIFPPSDEQLKSGTASVVCLLNNFYPREAKVQWKVDNALQSGNSQESVTEQDSKDSTYSLSSTLTLSKADYEKHKVYACEVTHQGLSSPVTKSFNRGEC
52.6 relative, GpH7-A5/GpH7-B3/GpL16-k0 = 100 | 102 relative, GpH7-A5/GpH7-B3/GpL16-k0 = 100 | GpH7-A5/GpH7-B3 variant E269_05P/GpL16-k0 (antibody, human IgG1, kappa, Heterodimerized anti-glypican-3 IgG1; mutation in the GpH7-B3 chain only; also called He Ab E269P) heavy 1: not shown heavy 2: not shown light: DIVMTQSPLSLPVTPGEPASISCQASESLVHSNRNTYLHWYLQKPGQSPQLLIYKVSNRFSGVPDRFSGSGSGTDFTLKISRVEAEDVGVYYCSQNTHVPPTFGQGTKVEIERTVAAPSVFIFPPSDEQLKSGTASVVCLLNNFYPREAKVQWKVDNALQSGNSQESVTEQDSKDSTYSLSSTLTLSKADYEKHKVYACEVTHQGLSSPVTKSFNRGEC
46.7 relative, GpH7-A5/GpH7-B3/GpL16-k0 = 100 | 104 relative, GpH7-A5/GpH7-B3/GpL16-k0 = 100 | GpH7-A5/GpH7-B3 variant E269_06M/GpL16-k0 (antibody, human IgG1, kappa, Heterodimerized anti-glypican-3 IgG1; mutation in the GpH7-B3 chain only; also called He Ab E269M) heavy 1: not shown heavy 2: not shown light: DIVMTQSPLSLPVTPGEPASISCQASESLVHSNRNTYLHWYLQKPGQSPQLLIYKVSNRFSGVPDRFSGSGSGTDFTLKISRVEAEDVGVYYCSQNTHVPPTFGQGTKVEIERTVAAPSVFIFPPSDEQLKSGTASVVCLLNNFYPREAKVQWKVDNALQSGNSQESVTEQDSKDSTYSLSSTLTLSKADYEKHKVYACEVTHQGLSSPVTKSFNRGEC
43.9 relative, GpH7-A5/GpH7-B3/GpL16-k0 = 100 | 103 relative, GpH7-A5/GpH7-B3/GpL16-k0 = 100 | GpH7-A5/GpH7-B3 variant E269_07I/GpL16-k0 (antibody, human IgG1, kappa, Heterodimerized anti-glypican-3 IgG1; mutation in the GpH7-B3 chain only; also called He Ab E269I) heavy 1: not shown heavy 2: not shown light: DIVMTQSPLSLPVTPGEPASISCQASESLVHSNRNTYLHWYLQKPGQSPQLLIYKVSNRFSGVPDRFSGSGSGTDFTLKISRVEAEDVGVYYCSQNTHVPPTFGQGTKVEIERTVAAPSVFIFPPSDEQLKSGTASVVCLLNNFYPREAKVQWKVDNALQSGNSQESVTEQDSKDSTYSLSSTLTLSKADYEKHKVYACEVTHQGLSSPVTKSFNRGEC
42.9 relative, GpH7-A5/GpH7-B3/GpL16-k0 = 100 | 104 relative, GpH7-A5/GpH7-B3/GpL16-k0 = 100 | GpH7-A5/GpH7-B3 variant E269_08L/GpL16-k0 (antibody, human IgG1, kappa, Heterodimerized anti-glypican-3 IgG1; mutation in the GpH7-B3 chain only; also called He Ab E269L) heavy 1: not shown heavy 2: not shown light: DIVMTQSPLSLPVTPGEPASISCQASESLVHSNRNTYLHWYLQKPGQSPQLLIYKVSNRFSGVPDRFSGSGSGTDFTLKISRVEAEDVGVYYCSQNTHVPPTFGQGTKVEIERTVAAPSVFIFPPSDEQLKSGTASVVCLLNNFYPREAKVQWKVDNALQSGNSQESVTEQDSKDSTYSLSSTLTLSKADYEKHKVYACEVTHQGLSSPVTKSFNRGEC
